Experimental data as given in IntAct's records for PubMed 25009770.

B1: Chorionic somatomammotropin hormone 1 (Homo sapiens), P0DML2 (parent)
chain: MAPGSRTSLLLAFALLCLPWLQEAGAVQTVPLSRLFDHAMLQAHRAHQLAIDTYQEFEETYIPKDQKYSFLHDSQTSFCFSDSIPTPSNMEETQQKSNLELLRISLLLIESWLEPVRFLRSMFANNLVYDTSDSDDYHLLKDLEEGIQTLMGRLEDGSRRTGQILKQTYSKFDTNSHNHDALLKNYGLLYCFRKDMDKVETFLRMVQCRSVEGSCGF
partner: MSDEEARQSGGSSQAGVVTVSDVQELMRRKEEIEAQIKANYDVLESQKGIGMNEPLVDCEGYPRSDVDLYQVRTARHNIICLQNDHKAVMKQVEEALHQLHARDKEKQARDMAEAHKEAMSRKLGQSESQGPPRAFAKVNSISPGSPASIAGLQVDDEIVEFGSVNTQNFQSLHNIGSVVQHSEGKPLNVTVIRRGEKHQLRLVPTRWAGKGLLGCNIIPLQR
B2: Transcription factor E2-alpha (Homo sapiens), P15923-1 (parent)
chain: MNQPQRMAPVGTDKELSDLLDFSMMFPLPVTNGKGRPASLAGAQFGGSGLEDRPSSGSWGSGDQSSSSFDPSRTFSEGTHFTESHSSLSSSTFLGPGLGGKSGERGAYASFGRDAGVGGLTQAGFLSGELALNSPGPLSPSGMKGTSQYYPSYSGSSRRRAADGSLDTQPKKVRKVPPGLPSSVYPPSSGEDYGRDATAYPSAKTPSSTYPAPFYVADGSLHPSAELWSPPGQAGFGPMLGGGSSPLPLPPGSGPVGSSGSSSTFGGLHQHERMGYQLHGAEVNGGLPSASSFSSAPGATYGGVSSHTPPVSGADSLLGSRGTTAGSSGDALGKALASIYSPDHSSNNFSSSPSTPVGSPQGLAGTSQWPRAGAPGALSPSYDGGLHGLQSKIEDHLDEAIHVLRSHAVGTAGDMHTLLPGHGALASGFTGPMSLGGRHAGLVGGSHPEDGLAGSTSLMHNHAALPSQPGTLPDLSRPPDSYSGLGRAGATAAASEIKREEKEDEENTSAADHSEEEKKELKAPRARTSPDEDEDDLLPPEQKAEREKERRVANNARERLRVRDINEAFKELGRMCQLHLNSEKPQTKLLILHQAVSVILNLEQQVRERNLNPKAACLKRREEEKVSGVVGDPQMVLSAPHPGLSEAHNPAGHM
partner: B1 partner
B3: Heterogeneous nuclear ribonucleoprotein A1 (Homo sapiens), P09651-2 (parent)
chain: MSKSESPKEPEQLRKLFIGGLSFETTDESLRSHFEQWGTLTDCVVMRDPNTKRSRGFGFVTYATVEEVDAAMNARPHKVDGRVVEPKRAVSREDSQRPGAHLTVKKIFVGGIKEDTEEHHLRDYFEQYGKIEVIEIMTDRGSGKKRGFAFVTFDDHDSVDKIVIQKYHTVNGHNCEVRKALSKQEMASASSSQRGRSGSGNFGGGRGGGFGGNDNFGRGGNFSGRGGFGGSRGGGGYGGSGDGYNGFGNDGSNFGGGGSYNDFGNYNNQSSNFGPMKGGNFGGRSSGPYGGGGQYFAKPRNQGGYGGSSSSSSYGSGRRF
partner: B1 partner

Variants of: B1
Conditions: with psmd9_human PSMD9, O00233

effect of a mutation on the interaction	Variant
with no effect	F217G

Variants of: B2
Conditions: with psmd9_human PSMD9, O00233

effect of a mutation on the interaction	Variant
decreasing interaction strength	M654G

Variants of: B3
Conditions: with psmd9_human PSMD9, O00233

effect of a mutation on the interaction	Variant
disrupting interaction strength	F320G

Variants of: B3
Conditions: with psmd9_human PSMD9, O00233
Remark: another data set of the same source

effect of a mutation on the interaction	Variant
decreasing interaction strength	F320G

Variants of: B3
Conditions: with psmd9_human PSMD9, O00233
Remark: another data set of the same source

effect of a mutation on the interaction	Variant
with no effect	F320G
